# B1: Bor1p (natural protein, S. cerevisiae)
# chain: MSNESTRVTVSRGCTASDECAQALERTNDELDRESSVSESRSDEESHEKLSRRRFPTLGIGIWLDLKDRIPYYKSDWVDAFNYRVIPSIVDTYFNNLLPAIAFAQDMFDRTDNSYGVNEVLLSSAMAGIVFGVLGGQPLCIVGVTGPISIFNYTVYEIIKPLNTSYFGFMFWICMWSMIFHLVLAFTNAVCLLQYVTTFPCDIFGLFINVVYIQKGIQILTRQFSAKSGEKSVQDGFASVVVALVMTAFGLFFKLFHYYPLFSHRIRTFISDYSTALSVLFWSSFTHFGGYLHDVKFKKLPITKAFFPTSKVNRPQNTWLAYEPIPVKDVFIALPFGIFLTILFYFDHNVSSLMAQRHQYKLKKPSSFHYDFALLGLTTCISGVLGIPAPNGLIPQAPLHTETLLVRDSNQKVISCVEQRFTNTFQGLMILGTMTRPLLVCLGEIPQAVLSGLFFIMGINGLMTNSIIQRLVFLFSDPNRRDNTSPLMKVSKKSMLIFLSFSLTGFAGEFAITNTIAAIGFPLVLLLSVLVSFSFAYIFPTEELKILDTNVAQKFTIKNLLLENIRDAKFCDKHEDSGLEVLFQ
# Molecular target: the molecule itself
# Assay: SEC-MALS
protein,measurement,value
B1,stoichiometry N,2

# Source: paper PMC2843815 (Protein expression and purification, 2010)
